Experimental data from the supplement of paper PMC10567573.

B1: PTPN9 (parent)
chain: NKWTVQYNVSPLSWNVAVKFLMAR

Variants of: B1
Assay: protein stability index of a GFP-peptide fusion (GPS, HEK-293T) (PSI 1-6); higher = more stable
Settings: c terminus: a fixed tail appended
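Note: lentivirally expressed fusions sorted by FACS into six bins by GFP to DsRed ratio, PSI derived from sequencing read proportions per bin multiplied by bin number.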

| Variant | protein stability index |
| --- | --- |
| NKWTVQYNWSPLSWNVAVKFLMAR [V9W] | 2.98 |
| NKWTVQYNASPLSWNVAVKFLMAR [V9A] | 3.1 |
| NKWTVQYNESPLSWNVAVKFLMAR [V9E] | 1.46 |
| NKWTVQYNVSPLWWNVAVKFLMAR [S13W] | 2.65 |
| NKWTVQYNVSPLIWNVAVKFLMAR [S13I] | 1.99 |
| NKWTVQYNVSPLVWNVAVKFLMAR [S13V] | 2.88 |
| NKWTVQYNVSPLDWNVAVKFLMAR [S13D] | 2.74 |
| NKWTVQYNVSPLSWWVAVKFLMAR [N15W] | 2.27 |
| NKWTVQYNVSPLSWAVAVKFLMAR [N15A] | 3.46 |
| NKWTVQYNVSPLSWEVAVKFLMAR [N15E] | 3.45 |
| NKWTVQYNVSPLSWYVAVKFLMAR [N15Y] | 1.9 |
| NKWTVQYNVSPLSWKVAVKFLMAR [N15K] | 4.23 |
| NKWTVQYNVSPLSWIVAVKFLMAR [N15I] | 3.96 |
| NKWTVQYNVSPDSWNVAVKFLMAR [L12D] | 3.6 |
| NKWTVQYNVSPISWNVAVKFLMAR [L12I] | 2.07 |
| NKQTVQYNVSPLSWNVAVKFLMAR [W3Q] | 2.35 |
| NKYTVQYNVSPLSWNVAVKFLMAR [W3Y] | 2.57 |
| NKNTVQYNVSPLSWNVAVKFLMAR [W3N] | 1.31 |
| NKSTVQYNVSPLSWNVAVKFLMAR [W3S] | 2.1 |
| NKGTVQYNVSPLSWNVAVKFLMAR [W3G] | 1.77 |
| VKWTVQYNVSPLSWNVAVKFLMAR [N1V] | 2.06 |
| NKWTVQRNVSPLSWNVAVKFLMAR [Y7R] | 1.14 |
| NKWTVQFNVSPLSWNVAVKFLMAR [Y7F] | 3.3 |
| NKWTVQVNVSPLSWNVAVKFLMAR [Y7V] | 3.44 |

| Variant | protein stability index |
| --- | --- |
| NKWTVQDNVSPLSWNVAVKFLMAR [Y7D] | 1.91 |
| NKWTVQSNVSPLSWNVAVKFLMAR [Y7S] | 2.84 |
| NKWTVQYNVSNLSWNVAVKFLMAR [P11N] | 2.66 |
| NKWTVQYNVSSLSWNVAVKFLMAR [P11S] | 4.04 |
| NKWTVQYNVSPLSWNVAVKFLMVR [A23V] | 2.43 |
| NKWTVQYNVSPLSWNVAVKFLMFR [A23F] | 2.72 |
| NKWTVQYNVSPLSWNVAVKFLMIR [A23I] | 2.44 |
| NKWTVGYNVSPLSWNVAVKFLMAR [Q6G] | 1.7 |
| NKWTVEYNVSPLSWNVAVKFLMAR [Q6E] | 3.28 |
| NKWTVKYNVSPLSWNVAVKFLMAR [Q6K] | 3.19 |
| NKWTVQYNVSPLSWNGAVKFLMAR [V16G] | 2.55 |
| NKWTVQYNVSPLSWNQAVKFLMAR [V16Q] | 1.52 |
| NKWTVQYNVSPLSWNFAVKFLMAR [V16F] | 3.88 |
| NKWTVQYNVSPLSWNDAVKFLMAR [V16D] | 1.93 |
| NKWTVQYNVSPLSWNNAVKFLMAR [V16N] | 1.51 |
| NKWTVQYNVSPLSWNPAVKFLMAR [V16P] | 1.99 |
| NKWTVQYNVCPLSWNVAVKFLMAR [S10C] | 3.37 |
| NKWTVQYNVAPLSWNVAVKFLMAR [S10A] | 2.26 |
| NKWTVQYNVFPLSWNVAVKFLMAR [S10F] | 2.12 |
| NKWTVQYNVSPLSWNVAEKFLMAR [V18E] | 1.49 |
| NKWTVQYNVSPLSWNVAAKFLMAR [V18A] | 2.48 |
| NKWTVQYNVSPLSWNVAGKFLMAR [V18G] | 1.8 |
| NKWTVQYNVSPLSWNVAVYFLMAR [K19Y] | 3.14 |
| NKWTVQYNVSPLSWNVAVCFLMAR [K19C] | 2.41 |

| Variant | protein stability index |
| --- | --- |
| NKWTVQYNVSPLSWNVAVRFLMAR [K19R] | 2.64 |
| NKWTVQYNVSPLSWNVAVNFLMAR [K19N] | 1.63 |
| NKWTVQYNVSPLSWNVAVAFLMAR [K19A] | 1.74 |
| NKWTVQYNVSPLSWNVAVKFLTAR [M22T] | 2.09 |
| NKWTVQYNVSPLSWNVAVKFLNAR [M22N] | 2.06 |
| NKWTVQYNVSPLSWNVAVKFLCAR [M22C] | 2.06 |
| NKWTVQYNVSPLSWNVKVKFLMAR [A17K] | 2.28 |
| NKWTVQYNVSPLSWNVDVKFLMAR [A17D] | 1.78 |
| NKWTVQYNVSPLSWNVHVKFLMAR [A17H] | 2.23 |
| NKWTVQYNVSPLSWNVIVKFLMAR [A17I] | 3.65 |
| NKWTVQYNVSPLSWNVMVKFLMAR [A17M] | 2.92 |
| NKWTVQYNVSPLSWNVAVKFNMAR [L21N] | 1.72 |
| NKWTVQYNVSPLSWNVAVKFVMAR [L21V] | 3.01 |
| NKWTVQYNVSPLSWNVAVKFRMAR [L21R] | 3.22 |
| NAWTVQYNVSPLSWNVAVKFLMAR [K2A] | 2.25 |
| NMWTVQYNVSPLSWNVAVKFLMAR [K2M] | 3.14 |
| NDWTVQYNVSPLSWNVAVKFLMAR [K2D] | 3.84 |
| NFWTVQYNVSPLSWNVAVKFLMAR [K2F] | 1.49 |
| NKWTVQYNVSPLSWNVAVKSLMAR [F20S] | 2.3 |
| NKWTVQYNVSPLSWNVAVKCLMAR [F20C] | 1.68 |
| NKWTVQYNVSPLSWNVAVKYLMAR [F20Y] | 2.94 |
| NKWTVQYNVSPLSWNVAVKILMAR [F20I] | 2.27 |
| NKWTVQYNVSPLSWNVAVKHLMAR [F20H] | 1.67 |
| NKWTVQYNVSPLSWNVAVKQLMAR [F20Q] | 2.38 |

| Variant | protein stability index |
| --- | --- |
| NKWTVQYNVSPLSWNVAVKGLMAR [F20G] | 2.97 |
| NKWTVQYNVSPLSWNVAVKRLMAR [F20R] | 3.62 |
| NKWTDQYNVSPLSWNVAVKFLMAR [V5D] | 1.76 |
| NKWTHQYNVSPLSWNVAVKFLMAR [V5H] | 3.13 |
| NKWTGQYNVSPLSWNVAVKFLMAR [V5G] | 2.31 |
| NKWTQQYNVSPLSWNVAVKFLMAR [V5Q] | 1.92 |
| NKWTVQYNVSPLSKNVAVKFLMAR [W14K] | 2.24 |
| NKWTVQYNVSPLSMNVAVKFLMAR [W14M] | 2.75 |
| NKWTVQYNVSPLSRNVAVKFLMAR [W14R] | 2.4 |
| NKWTVQYNVSPLSGNVAVKFLMAR [W14G] | 2.35 |
| NKWTVQYNVSPLSTNVAVKFLMAR [W14T] | 1.93 |
| NKWTVQYNVSPLSWNVAVKFLMAM [R24M] | 2.65 |
| NKWTVQYNVSPLSWNVAVKFLMAT [R24T] | 2.27 |
| NKWTVQYNVSPLSWNVAVKFLMAF [R24F] | 1.41 |
| NKWTVQYNVSPLSWNVAVKFLMAN [R24N] | 3.31 |
| NKWTVQYYVSPLSWNVAVKFLMAR [N8Y] | 3.61 |
| NKWTVQYRVSPLSWNVAVKFLMAR [N8R] | 2.26 |
| NKWTVQYDVSPLSWNVAVKFLMAR [N8D] | 2.07 |
| NKWTVQYTVSPLSWNVAVKFLMAR [N8T] | 2.15 |
| NKWLVQYNVSPLSWNVAVKFLMAR [T4L] | 1.71 |
| NKWDVQYNVSPLSWNVAVKFLMAR [T4D] | 2.22 |
| NKWYVQYNVSPLSWNVAVKFLMAR [T4Y] | 3.46 |
